Measurements: paper PMC4593670

Target: F-ATPase from Paracoccus denitrificans (nine core subunits α, β, γ, δ, ε, a, b, b' and c) (Paracoccus denitrificans (strain PD1222)) (UniProt A1B8N8)
Test: reverse-phase LC-MS of the subunits of the purified complex; subunits of F-ATPase I fractionated by reverse-phase chromatography, online electrospray MS; amounts estimated from peak areas of the ion traces, ζ against the δ-subunit

UniProt A1B8N8, sequence (A1B8N8 whole entry, looked up, stated change not applied, tested part not stated): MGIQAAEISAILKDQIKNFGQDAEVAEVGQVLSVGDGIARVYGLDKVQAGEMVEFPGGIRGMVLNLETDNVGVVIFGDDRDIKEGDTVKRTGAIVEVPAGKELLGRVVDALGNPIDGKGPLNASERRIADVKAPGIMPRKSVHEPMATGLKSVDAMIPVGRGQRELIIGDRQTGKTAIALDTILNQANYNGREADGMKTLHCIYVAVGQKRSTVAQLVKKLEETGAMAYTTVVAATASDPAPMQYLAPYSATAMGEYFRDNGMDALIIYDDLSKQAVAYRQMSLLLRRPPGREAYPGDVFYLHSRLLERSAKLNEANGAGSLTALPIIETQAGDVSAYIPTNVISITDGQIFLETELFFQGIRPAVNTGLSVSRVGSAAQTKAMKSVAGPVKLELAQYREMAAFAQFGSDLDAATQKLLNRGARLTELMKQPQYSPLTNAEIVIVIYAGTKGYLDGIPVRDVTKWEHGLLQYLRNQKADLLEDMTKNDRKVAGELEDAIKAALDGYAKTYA

## ζ inhibitor protein of the F-ATPase from Paracoccus denitrificans (natural protein)
  stoichiometry N (ζ-protein per F-ATPase complex): 1
